Data: patent US20120231005A1 (Merck Sharp & Dohme, published 2012)

Tests used:
human PCSK9 [1] = target: T1, human PCSK9 (human, UniProt Q8NBP7 31-692, limits assumed); assay: cell-based or functional assay
rhesus PCSK9 (rhesus) = assay: SPR (Biacore); IgG captured on anti-human IgG, PCSK9 injected
human PCSK9 [2] = target: T1, human PCSK9; assay: as above
Experimental: The affinities of those IgG molecules were also measured by Biacore assay. Briefly, anti-human IgG monoclonal antibody form Human Antibody Capture Kit provided by Biacore was immobilized on CM5 chips at a level of 8000 to 10000 RU. […] After each round injection, the sensor chip surface was regenerated by 30 second injection of 3M Magnesium Chloride.

human PCSK9 [3] = target: T1, human PCSK9; assay: SPR (Biacore); Fab captured on anti-Fab IgG, PCSK9 injected; 1:1 Langmuir fit
Experimental: First, goat anti-Fab IgGs were immobilized onto CM5 chip by amine coupling as described above. The anti-Fab IgGs were diluted to 200 μg/ml in pH 5/10 mM Acetate solution, and injected onto the NHS/EDC activated surface to achieve an immobilization level of ˜10,000 RU, followed with surface inactivation by injection of Ethanolamine. […] The sensor chip surface was regenerated by 30 second injection of 100 mM phosphoric acid. The binding sensorgrams were fitted with 1:1 Langmuir binding model to determine the binding affinity.

T1 sequence (Q8NBP7 31-692 limits assumed): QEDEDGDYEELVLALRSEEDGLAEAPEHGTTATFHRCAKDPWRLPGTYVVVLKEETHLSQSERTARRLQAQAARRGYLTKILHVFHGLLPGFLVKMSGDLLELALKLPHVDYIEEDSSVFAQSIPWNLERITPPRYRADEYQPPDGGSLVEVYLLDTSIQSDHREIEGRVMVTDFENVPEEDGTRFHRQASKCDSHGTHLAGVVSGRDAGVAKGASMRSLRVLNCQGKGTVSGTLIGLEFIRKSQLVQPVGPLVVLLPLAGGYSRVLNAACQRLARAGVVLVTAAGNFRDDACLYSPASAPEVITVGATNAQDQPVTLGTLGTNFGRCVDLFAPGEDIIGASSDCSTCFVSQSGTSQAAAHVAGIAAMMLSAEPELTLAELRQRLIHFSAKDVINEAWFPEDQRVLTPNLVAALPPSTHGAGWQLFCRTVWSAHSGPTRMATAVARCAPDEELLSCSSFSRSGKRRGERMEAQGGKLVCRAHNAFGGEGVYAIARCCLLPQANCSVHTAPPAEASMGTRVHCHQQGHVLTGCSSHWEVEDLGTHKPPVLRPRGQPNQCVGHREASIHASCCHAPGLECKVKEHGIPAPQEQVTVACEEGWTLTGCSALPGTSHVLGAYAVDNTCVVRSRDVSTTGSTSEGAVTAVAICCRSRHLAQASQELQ

Binder | Kd (human PCSK9 [3]) [nM] | further results
AX422 IgG2 (antibody, V domains shown, also called AX422 (55N to S)) VH: EVQLLESGGGLVQPGGSLRLSCKASGYTFSSYWMHWVRQAPGKGLEWIGRIDPYSGGTKYNEKFKGKATISRDNSKNTLYLQMNSLRAEDTAVYYCARYGYYLGSYAMDYWGQGTLVTVSS VL: DIQMTQSPSSLSASVGDRVTITCRASQDVSRYLTWYQQKPGKAPKLLIYAASSLQSGVPSRFSGSGSGTDFTLTISSLQPEDFATYYCQAYDYSLSGYVFGGGTKVEIKR | – | IgG IC50 (nM), inhibition of PCSK9 on LDL uptake (Exopolar assay) (human PCSK9 [1]): 5 nM; Kd (rhesus PCSK9 (rhesus)): 1.96 nM; Kd (human PCSK9 [2]): 2.12 nM
AX424 IgG2 (antibody, V domains shown, also called AX424 (55N to T)) VH: EVQLLESGGGLVQPGGSLRLSCKASGYTFSSYWMHWVRQAPGKGLEWIGRIDPYTGGTKYNEKFKGKATISRDNSKNTLYLQMNSLRAEDTAVYYCARYGYYLGSYAMDYWGQGTLVTVSS VL: DIQMTQSPSSLSASVGDRVTITCRASQDVSRYLTWYQQKPGKAPKLLIYAASSLQSGVPSRFSGSGSGTDFTLTISSLQPEDFATYYCQAYDYSLSGYVFGGGTKVEIKR | – | IgG IC50 (nM), inhibition of PCSK9 on LDL uptake (Exopolar assay) (human PCSK9 [1]): 6 nM; Kd (rhesus PCSK9 (rhesus)): 2.36 nM; Kd (human PCSK9 [2]): 2.16 nM
AX1 Fab (Fab, V domains shown, Soluble Fab from E. coli TG1 periplasm; Tags encoded by the display vector are not described for the protein) VH: EVQLLESGGGLVQPGGSLRLSCKASGFTFTSYYMHWVRQAPGKGLEWIGRINPDSGSTKYNEKFKGRATISRDNSKNTLYLQMNSLRAEDTAVYYCARGGRLSWDFDVWGQGTLVTVSS VL: DIQMTQSPSSLSASVGDRVTITCRASQDISRYLAWYQQKPGKAPKLLIYAASSLQSGVPSRFSGSGSGTDFTLTISSLQPEDFATYYCAAYDYSLGGYVFGDGTKVEIKR | 6 | Fab IC50 (nM), inhibition of PCSK9 on LDL uptake (Exopolar assay) (human PCSK9 [1]): 146 nM
AX9 Fab (Fab, V domains shown) VH: EVQLLESGGGLVQPGGSLRLSCKASGYTFSSYWMHWVRQAPGKGLEWIGRIDPYNGGTKYNEKFKGKATISRDNSKNTLYLQMNSLRAEDTAVYYCARYGYYLGSYAMDYWGQGTLVTVSS VL: DIQMTQSPSSLSASVGDRVTITCRASQDVSKYLAWYQQKPGKAPKLLIYAASSLQSGVPSRFSGSGSGTDFTLTISSLQPEDFATYYCQVYDSSPNAYVFGGGTKVEIKR | 23.9 | Fab IC50 (nM), inhibition of PCSK9 on LDL uptake (Exopolar assay) (human PCSK9 [1]): 287 nM
AX189 Fab (Fab, V domains shown, The heavy chain is the Fd chain) VH: EVQLLESGGGLVQPGGSLRLSCKASGYTFSSYWMHWVRQAPGKGLEWIGRIDPYNGGTKYNEKFKGKATISRDNSKNTLYLQMNSLRAEDTAVYYCARYGYYLGSYAMDYWGQGTLVTVSS VL: DIQMTQSPSSLSASVGDRVTITCRASQDVSRYLTWYQQKPGKAPKLLIYAASSLQSGVPSRFSGSGSGTDFTLTISSLQPEDFATYYCQAYDYSLSGYVFGGGTKVEIKR | 6.3 | Fab IC50 (nM), inhibition of PCSK9 on LDL uptake (Exopolar assay) (human PCSK9 [1]): 31 nM
AX422 Fab (Fab, V domains shown, also called AX189_VH 55N to S) VH: EVQLLESGGGLVQPGGSLRLSCKASGYTFSSYWMHWVRQAPGKGLEWIGRIDPYSGGTKYNEKFKGKATISRDNSKNTLYLQMNSLRAEDTAVYYCARYGYYLGSYAMDYWGQGTLVTVSS VL: DIQMTQSPSSLSASVGDRVTITCRASQDVSRYLTWYQQKPGKAPKLLIYAASSLQSGVPSRFSGSGSGTDFTLTISSLQPEDFATYYCQAYDYSLSGYVFGGGTKVEIK | 4.1 | –
AX191 Fab (Fab, V domains shown) VH: EVQLLESGGGLVQPGGSLRLSCKASGYTFSSYWMHWVRQAPGKGLEWIGRIDPYNGGTKYNEKFKGKATISRDNSKNTLYLQMNSLRAEDTAVYYCARYGYYLGSYAMDYWGQGTLVTVSS VL: DIQMTQSPSSLSASVGDRVTITCRASQDISKYLAWYQQKPGKAPKLLIYAASSLQSGVPSRFSGSGSGTDFTLTISSLQPEDFATYYCQAYDYSSSAYVFGGGTKVEIK | 5.2 | Fab IC50 (nM), inhibition of PCSK9 on LDL uptake (Exopolar assay) (human PCSK9 [1]): 13 nM
AX193 Fab (Fab, V domains shown) VH: EVQLLESGGGLVQPGGSLRLSCKASGYTFSSYWMHWVRQAPGKGLEWIGRIDPYNGGTKYNEKFKGKATISRDNSKNTLYLQMNSLRAEDTAVYYCARYGYYLGSYAMDYWGQGTLVTVSS VL: DIQMTQSPSSLSASVGDRVTITCRASQAISKYLNWYQQKPGKAPKLLIYAASSLQSGVPSRFSGSGSGTDFTLTISSLQPEDFATYYCESYDYSLGRYVFGGGTKVEIK | 7 | –
AX194 Fab (Fab, V domains shown) VH: EVQLLESGGGLVQPGGSLRLSCKASGYTFSSYWMHWVRQAPGKGLEWIGRIDPYNGGTKYNEKFKGKATISRDNSKNTLYLQMNSLRAEDTAVYYCARYGYYLGSYAMDYWGQGTLVTVSS VL: DIQMTQSPSSLSASVGDRVTTTCRASQAVSRYLTWYQQKPGKAPKLLIYAASSLQSGVPSRFSGSGSGTDFTLTISSLQPEDFATYYCQAYDYSLGAYVFGGGTKVEIK | 6.1 | –
AX195 Fab (Fab, V domains shown) VH: EVQLLESGGGLVQPGGSLRLSCKASGYTFSSYWMHWVRQAPGKGLEWIGRIDPYNGGTKYNEKFKGKATISRDNSKNTLYLQMNSLRAEDTAVYYCARYGYYLGSYAMDYWGQGTLVTVSS VL: DIQMTQSPSSLSASVGDRVTITCRASQAVSKYLAWYQQKPGKAPKLLIYAASSLQSGVPSRFSGSGSGTDFTLTISSLQPEDFATYYCQAYDYSLGDYVFGGGTKVEIK | 9.9 | –
AX196 Fab (Fab, V domains shown) VH: EVQLLESGGGLVQPGGSLRLSCKASGYTFSSYWMHWVRQAPGKGLEWIGRIDPYNGGTKYNEKFKGKATISRDNSKNTLYLQMNSLRAEDTAVYYCARYGYYLGSYAMDYWGQGTLVTVSS VL: DIQITQSPSSLSASVGDRVTITCRASQDVSRYLAWYQQKPGKAPKLLIYAASSLQSGVPSRFSGSGSGTDFTLTISSLQPEDFATYYCESYDYSLSHYVFGGGTKVEIK | 18.3 | –
AX197 Fab (Fab, V domains shown) VH: EVQLLESGGGLVQPGGSLRLSCKASGYTFSSYWMHWVRQAPGKGLEWIGRIDPYNGGTKYNEKFKGKATISRDNSKNTLYLQMNSLRAEDTAVYYCARYGYYLGSYAMDYWGQGTLVTVSS VL: DIQMTQSPSSLSASVGDRVTITCRASQAISRYLAWYQQKPGKAPKLLIYAASSLQSGVPSRFSGSGSGTDFTLTISSLQPEDFATYYCQAYDYSLGHYVFGGGTKVEIK | 5.6 | –
AX198 Fab (Fab, V domains shown) VH: EVQLLESGGGLVQPGGSLRLSCKASGYTFSSYWMHWVRQAPGKGLEWIGRIDPYNGGTKYNEKFKGKATISRDNSKNTLYLQMNSLRAEDTAVYYCARYGYYLGSYAMDYWGQGTLVTVSS VL: DIQMTQSPSSLSASVGDRVTITCRASQAVSSYLNWYQQKPGKAPKLLIYAASSLQSGVPSRFSGSGSGTDFTLTISSLQPEDFATYYCEAYDYSLGGWVFGGGTKVEIK | 4.3 | –
AX199 Fab (Fab, V domains shown) VH: EVQLLESGGGLVQPGGSLRLSCKASGYTFSSYWMHWVRQAPGKGLEWIGRIDPYNGGTKYNEKFKGKATISRDNSKNTLYLQMNSLRAEDTAVYYCARYGYYLGSYAMDYWGQGTLVTVSS VL: DIQMTQSPSSLSASVGDRVTITCRASQSVSNYLHWYQQKPGKAPKLLIYAASSLQSGVPSRFSGSGSGTDFTLTISSLQPEDFATYYCQAYDYSLGPYVFGGGTKVEIK | 26.2 | –
AX200 Fab (Fab, V domains shown) VH: EVQLLESGGGLVQPGGSLRLSCKASGYTFSSYWMHWVRQAPGKGLEWIGRIDPYNGGTKYNEKFKGKATISRDNSKNTLYLQMNSLRAEDTAVYYCARYGYYLGSYAMDYWGQGTLVTVSS VL: DIQMTQSPSSLSASVGDRVTITCRASQDVSKYLAWYQQKPGKAPKLLIYAASSLQSGVPSRFSGSGSGTDFTLTISSLQPEDFATYYCEAYDYSLSHYVFGGGTKVEIK | 9.6 | –
AX421 Fab (Fab, V domains shown, also called AX189_VH 56G to E) VH: EVQLLESGGGLVQPGGSLRLSCKASGYTFSSYWMHWVRQAPGKGLEWIGRIDPYNEGTKYNEKFKGKATISRDNSKNTLYLQMNSLRAEDTAVYYCARYGYYLGSYAMDYWGQGTLVTVSS VL: DIQMTQSPSSLSASVGDRVTITCRASQDVSRYLTWYQQKPGKAPKLLIYAASSLQSGVPSRFSGSGSGTDFTLTISSLQPEDFATYYCQAYDYSLSGYVFGGGTKVEIK | 6.7 | –
AX423 Fab (Fab, V domains shown, also called AX189_VH 56G to T) VH: EVQLLESGGGLVQPGGSLRLSCKASGYTFSSYWMHWVRQAPGKGLEWIGRIDPYNTGTKYNEKFKGKATISRDNSKNTLYLQMNSLRAEDTAVYYCARYGYYLGSYAMDYWGQGTLVTVSS VL: DIQMTQSPSSLSASVGDRVTITCRASQDVSRYLTWYQQKPGKAPKLLIYAASSLQSGVPSRFSGSGSGTDFTLTISSLQPEDFATYYCQAYDYSLSGYVFGGGTKVEIK | 32.8 | –
AX424 Fab (Fab, V domains shown, also called AX189_VH 55N to T) VH: EVQLLESGGGLVQPGGSLRLSCKASGYTFSSYWMHWVRQAPGKGLEWIGRIDPYTGGTKYNEKFKGKATISRDNSKNTLYLQMNSLRAEDTAVYYCARYGYYLGSYAMDYWGQGTLVTVSS VL: DIQMTQSPSSLSASVGDRVTITCRASQDVSRYLTWYQQKPGKAPKLLIYAASSLQSGVPSRFSGSGSGTDFTLTISSLQPEDFATYYCQAYDYSLSGYVFGGGTKVEIK | 4.2 | –
AX425 Fab (Fab, V domains shown, also called AX189_VH 55N to D) VH: EVQLLESGGGLVQPGGSLRLSCKASGYTFSSYWMHWVRQAPGKGLEWIGRIDPYDGGTKYNEKFKGKATISRDNSKNTLYLQMNSLRAEDTAVYYCARYGYYLGSYAMDYWGQGTLVTVSS VL: DIQMTQSPSSLSASVGDRVTITCRASQDVSRYLTWYQQKPGKAPKLLIYAASSLQSGVPSRFSGSGSGTDFTLTISSLQPEDFATYYCQAYDYSLSGYVFGGGTKVEIK | 17.6 | –
